Biological target: T1, NR-LU-10 antigen (Homo sapiens, UniProt P16422)
T1 construct: Positive NR-LU-10 tissue reactivity indicates NR-LU-10 antigen expression by such tissues; from tissue; host or cells: carcinoma and normal tissue specimens
T1 sequence (P16422 24-314): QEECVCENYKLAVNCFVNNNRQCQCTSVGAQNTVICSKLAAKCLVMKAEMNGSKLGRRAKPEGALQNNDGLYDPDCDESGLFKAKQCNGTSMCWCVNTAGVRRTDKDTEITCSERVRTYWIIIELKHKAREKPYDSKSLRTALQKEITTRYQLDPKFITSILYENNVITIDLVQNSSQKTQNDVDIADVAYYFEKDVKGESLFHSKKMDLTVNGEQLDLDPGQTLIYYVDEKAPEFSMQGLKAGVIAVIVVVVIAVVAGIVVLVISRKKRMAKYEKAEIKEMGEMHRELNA
Assay: NR-LU-10 reactivity with normal tissues (Table B)
Format: binding
Text: Radioimmunoassays, immunoprecipitation and Fluorescence-Activated Cell Sorter (FACS) analysis were used to obtain reactivity profiles of NR-LU-10. The NR-LU-10 target antigen was present on either fixed cultured cells or in detergent extracts of various types of cancer cells. For example, the NR-LU-10 antigen is found in small cell lung, non-small cell lung, colon, breast, renal, ovarian, pancreatic, and other carcinoma tissues. Tumor reactivity of the NR-LU-10 antibody is set forth in Table A, while NR-LU-10 reactivity with normal tissues is set forth in Table B. The values in Table B are obtained as described below. Positive NR-LU-10 tissue reactivity indicates NR-LU-10 antigen expression by such tissues.
The tissue specimens were scored in accordance with three reactivity parameters: (1) the intensity of the reaction; (2) the uniformity of the reaction within the cell type; and (3) the percentage of cells reactive with the antibody. These three values are combined into a single weighted comparative value between 0 and 500, with 500 being the most intense reactivity. This comparative value facilitates comparison of different tissues. Table B includes a summary reactivity value, the number of tissue samples examined and the number of samples that reacted positively with NR-LU-10.

[1] = Adenoid: Lymphoid Follicle-Central
[2] = Adenoid: Lymphoid Follicle-Peripheral
[3] = Adrenal: Zona Fasciculata Cortex
[4] = Adrenal: Zona Glomerulosa Cortex
[5] = Adrenal: Zona Reticularis Cortex
[6] = Brain-Cerebellum: Axons, Myelinated
[7] = Brain-Cerebellum: Purkenje's Cells
[8] = Brain-Cerebrum: Axons, Myelinated
[9] = Brain-Midbrain: Axons, Myelinated
[10] = Gall Bladder: Mucosal Epithelium
[11] = Kidney: Distal Convoluted Tubules
[12] = Kidney: Proximal Convoluted Tubules
[13] = Liver: Central Lobular Hepatocyte
[14] = Lymph Node: Lymphoid Follicle-Central
[15] = Lymph Node: Lymphoid Follicle-Peripheral
[16] = Mammary Gland: Alveolar Epithelium

B1: NR-LU-10: 150 kilodalton IgG2b monoclonal antibody recognizing an approximately 40 kilodalton glycoprotein antigen expressed on most carcinomas (antibody, V domains shown)
VH: EVQLQQSGAELVKPGASVRLSCTASGFNIKDTYMHWVIERPEQGLEWIGRIDPANGNTKCDPKFQGKATITADTSSNTAYLQLSSLTSEDTAVYYCSREVLTGTWSLDYWGQGTSVTVSS
VL: DIQMIQSPSSMFASLGDRVSLSCRASQGIRGNLDWYQQKPGGTIKLLIYSTSNLNSGVPSRFSGSGSGSDYSLTISSLDSEDFADYYCLQRNAYPYTFGGGTKLEIK
# Pos/Exam (Adenoid): 3/3 | Summary Reactivity (Adenoid): 433 | # Pos/Exam (Adenoid: Epithelium): 0/3 | Summary Reactivity (Adenoid: Epithelium): 0 | # Pos/Exam [1]: 0/3 | Summary Reactivity [1]: 0 | # Pos/Exam [2]: 2/2 | Summary Reactivity [2]: 400 | # Pos/Exam (Adipose Tissue: Fat Cells): 0/3 | Summary Reactivity (Adipose Tissue: Fat Cells): 0 | # Pos/Exam (Adrenal: Medulla): 0/3 | Summary Reactivity (Adrenal: Medulla): 0 | # Pos/Exam [3]: 0/3 | Summary Reactivity [3]: 0 | # Pos/Exam [4]: 0/3 | Summary Reactivity [4]: 0 | # Pos/Exam [5]: 0/3 | Summary Reactivity [5]: 0 | # Pos/Exam (Aorta: Elastic Interna): 0/3 | Summary Reactivity (Aorta: Elastic Interna): 0 | # Pos/Exam (Aorta: Endothelium): 0/3 | Summary Reactivity (Aorta: Endothelium): 0 | # Pos/Exam (Aorta: Tunica Adventitia): 0/3 | Summary Reactivity (Aorta: Tunica Adventitia): 0 | # Pos/Exam (Aorta: Tunica Media): 0/3 | Summary Reactivity (Aorta: Tunica Media): 0 | # Pos/Exam [6]: 0/3 | Summary Reactivity [6]: 0 | # Pos/Exam (Brain-Cerebellum: Microglia): 0/3 | Summary Reactivity (Brain-Cerebellum: Microglia): 0 | # Pos/Exam (Brain-Cerebellum: Neurons): 0/3 | Summary Reactivity (Brain-Cerebellum: Neurons): 0 | # Pos/Exam [7]: 0/3 | Summary Reactivity [7]: 0 | # Pos/Exam [8]: 0/3 | Summary Reactivity [8]: 0 | # Pos/Exam (Brain-Cerebrum: Microglia): 0/3 | Summary Reactivity (Brain-Cerebrum: Microglia): 0 | # Pos/Exam (Brain-Cerebrum: Neurons): 0/3 | Summary Reactivity (Brain-Cerebrum: Neurons): 0 | # Pos/Exam [9]: 0/3 | Summary Reactivity [9]: 0 | # Pos/Exam (Brain-Midbrain: Microglia): 0/3 | Summary Reactivity (Brain-Midbrain: Microglia): 0 | # Pos/Exam (Brain-Midbrain: Neurons): 0/3 | Summary Reactivity (Brain-Midbrain: Neurons): 0 | # Pos/Exam (Colon: Mucosal Epithelium): 3/3 | Summary Reactivity (Colon: Mucosal Epithelium): 500 | # Pos/Exam (Colon: Muscularis Externa): 0/3 | Summary Reactivity (Colon: Muscularis Externa): 0 | # Pos/Exam (Colon: Muscularis Mucosa): 0/3 | Summary Reactivity (Colon: Muscularis Mucosa): 0 | # Pos/Exam (Colon: Nerve Ganglia): 0/3 | Summary Reactivity (Colon: Nerve Ganglia): 0 | # Pos/Exam (Colon: Serosa): 0/1 | Summary Reactivity (Colon: Serosa): 0 | # Pos/Exam (Duodenum: Mucosal Epithelium): 3/3 | Summary Reactivity (Duodenum: Mucosal Epithelium): 500 | # Pos/Exam (Duodenum: Muscularis Mucosa): 0/3 | Summary Reactivity (Duodenum: Muscularis Mucosa): 0 | # Pos/Exam (Epididymis: Epithelium): 3/3 | Summary Reactivity (Epididymis: Epithelium): 419 | # Pos/Exam (Epididymis: Smooth Muscle): 0/3 | Summary Reactivity (Epididymis: Smooth Muscle): 0 | # Pos/Exam (Epididymis: Spermatozoa): 0/1 | Summary Reactivity (Epididymis: Spermatozoa): 0 | # Pos/Exam (Esophagus: Epithelium): 3/3 | Summary Reactivity (Esophagus: Epithelium): 86 | # Pos/Exam (Esophagus: Mucosal Gland): 2/2 | Summary Reactivity (Esophagus: Mucosal Gland): 450 | # Pos/Exam (Esophagus: Smooth Muscle): 0/3 | Summary Reactivity (Esophagus: Smooth Muscle): 0 | # Pos/Exam [10]: 0/3 | Summary Reactivity [10]: 467 | # Pos/Exam (Gall Bladder: Smooth Muscle): 0/3 | Summary Reactivity (Gall Bladder: Smooth Muscle): 0 | # Pos/Exam (Heart: Myocardium): 0/3 | Summary Reactivity (Heart: Myocardium): 0 | # Pos/Exam (Heart: Serosa): 0/1 | Summary Reactivity (Heart: Serosa): 0 | # Pos/Exam (Ileum: Lymph Node): 0/2 | Summary Reactivity (Ileum: Lymph Node): 0 | # Pos/Exam (Ileum: Mucosal Epithelium): 0/2 | Summary Reactivity (Ileum: Mucosal Epithelium): 0 | # Pos/Exam (Ileum: Muscularis Externa): 0/1 | Summary Reactivity (Ileum: Muscularis Externa): 0 | # Pos/Exam (Ileum: Muscularis Mucosa): 0/2 | Summary Reactivity (Ileum: Muscularis Mucosa): 0 | # Pos/Exam (Ileum: Nerve Ganglia): 0/1 | Summary Reactivity (Ileum: Nerve Ganglia): 0 | # Pos/Exam (Ileum: Serosa): 0/1 | Summary Reactivity (Ileum: Serosa): 0 | # Pos/Exam (Jejunum: Lymph Node): 0/1 | Summary Reactivity (Jejunum: Lymph Node): 0 | # Pos/Exam (Jejunum: Mucosal Epithelium): 2/2 | Summary Reactivity (Jejunum: Mucosal Epithelium): 400 | # Pos/Exam (Jejunum: Muscularis Externa): 0/2 | Summary Reactivity (Jejunum: Muscularis Externa): 0 | # Pos/Exam (Jejunum: Muscularis Mucosa): 0/2 | Summary Reactivity (Jejunum: Muscularis Mucosa): 0 | # Pos/Exam (Jejunum: Nerve Ganglia): 0/2 | Summary Reactivity (Jejunum: Nerve Ganglia): 0 | # Pos/Exam (Jejunum: Serosa): 0/1 | Summary Reactivity (Jejunum: Serosa): 0 | # Pos/Exam (Kidney: Collecting Tubules): 2/3 | Summary Reactivity (Kidney: Collecting Tubules): 160 | # Pos/Exam [11]: 3/3 | Summary Reactivity [11]: 500 | # Pos/Exam (Kidney: Glomerular Eipithelium): 0/3 | Summary Reactivity (Kidney: Glomerular Eipithelium): 0 | # Pos/Exam (Kidney: Mesangial): 0/3 | Summary Reactivity (Kidney: Mesangial): 0 | # Pos/Exam [12]: 3/3 | Summary Reactivity [12]: 500 | # Pos/Exam (Liver: Bile Duct): 3/3 | Summary Reactivity (Liver: Bile Duct): 500 | # Pos/Exam [13]: 1/3 | Summary Reactivity [13]: 4 | # Pos/Exam (Liver: Kupffer Cells): 0/3 | Summary Reactivity (Liver: Kupffer Cells): 0 | # Pos/Exam (Liver: Periportal Hepatocyte): 1/3 | Summary Reactivity (Liver: Periportal Hepatocyte): 40 | # Pos/Exam (Lung: Alveolar Macrophage): 0/3 | Summary Reactivity (Lung: Alveolar Macrophage): 0 | # Pos/Exam (Lung: Bronchial Epithelium): 0/2 | Summary Reactivity (Lung: Bronchial Epithelium): 0 | # Pos/Exam (Lung: Bronchial Smooth Muscle): 0/2 | Summary Reactivity (Lung: Bronchial Smooth Muscle): 0 | # Pos/Exam (Lung: Pneumocyte Type I): 3/3 | Summary Reactivity (Lung: Pneumocyte Type I): 354 | # Pos/Exam (Lung: Pneumocyte Type II): 3/3 | Summary Reactivity (Lung: Pneumocyte Type II): 387 | # Pos/Exam [14]: 0/3 | Summary Reactivity [14]: 0 | # Pos/Exam [15]: 0/3 | Summary Reactivity [15]: 0 | # Pos/Exam [16]: 3/3 | Summary Reactivity [16]: 500 | # Pos/Exam (Mammary Gland: Duct Epithelium): 3/3 | Summary Reactivity (Mammary Gland: Duct Epithelium): 500 | # Pos/Exam (Mammary Gland: Myoepithelium): 0/3 | Summary Reactivity (Mammary Gland: Myoepithelium): 0 | # Pos/Exam (Muscle Skeletal: Muscle Fiber): 0/3 | Summary Reactivity (Muscle Skeletal: Muscle Fiber): 0 | # Pos/Exam (Nerve: Axon, Myelinated): 0/2 | Summary Reactivity (Nerve: Axon, Myelinated): 0 | # Pos/Exam (Nerve: Endoneurium): 0/2

— patent US6416738B1, “Pretargeting methods and compounds” (NeoRx Corporation, priority 1973, dated 2002)
